Molecular target: the molecule itself
Assay: cryo-EM structure; single-particle cryo-EM of purified SOS1 in 20 mM HEPES pH 7.5, 150 mM NaCl, 5 mM β-ME, 0.007% GDN; two conformations (SOS1 at 2.8 Å, SOS1^expand at 3.4 Å)

B1: Arabidopsis thaliana Salt-overly-sensitive 1 (SOS1), full-length wild type (natural protein, UniProt Q9LKW9 1-1146, looked up)
chain: MTTVIDATMAYRFLEEATDSSSSSSSSKLESSPVDAVLFVGMSLVLGIASRHLLRGTRVPYTVALLVIGIALGSLEYGAKHNLGKIGHGIRIWNEIDPELLLAVFLPALLFESSFSMEVHQIKRCLGQMVLLAVPGVLISTACLGSLVKVTFPYEWDWKTSLLLGGLLSATDPVAVVALLKELGASKKLSTIIEGESLMNDGTAIVVFQLFLKMAMGQNSDWSSIIKFLLKVALGAVGIGLAFGIASVIWLKFIFNDTVIEITLTIAVSYFAYYTAQEWAGASGVLTVMTLGMFYAAFARTAFKGDSQKSLHHFWEMVAYIANTLIFILSGVVIAEGILDSDKIAYQGNSWRFLFLLYVYIQLSRVVVVGVLYPLLCRFGYGLDWKESIILVWSGLRGAVALALSLSVKQSSGNSHISKETGTLFLFFTGGIVFLTLIVNGSTTQFVLRLLRMDILPAPKKRILEYTKYEMLNKALRAFQDLGDDEELGPADWPTVESYISSLKGSEGELVHHPHNGSKIGSLDPKSLKDIRMRFLNGVQATYWEMLDEGRISEVTANILMQSVDEALDQVSTTLCDWRGLKPHVNFPNYYNFLHSKVVPRKLVTYFAVERLESACYISAAFLRAHTIARQQLYDFLGESNIGSIVINESEKEGEEAKKFLEKVRSSFPQVLRVVKTKQVTYSVLNHLLGYIENLEKVGLLEEKEIAHLHDAVQTGLKKLLRNPPIVKLPKLSDMITSHPLSVALPPAFCEPLKHSKKEPMKLRGVTLYKEGSKPTGVWLIFDGIVKWKSKILSNNHSLHPTFSHGSTLGLYEVLTGKPYLCDLITDSMVLCFFIDSEKILSLQSDSTIDDFLWQESALVLLKLLRPQIFESVAMQELRALVSTESSKLTTYVTGESIEIDCNSIGLLLEGFVKPVGIKEELISSPAALSPSNGNQSFHNSSEASGIMRVSFSQQATQYIVETRARAIIFNIGAFGADRTLHRRPSSLTPPRSSSSDQLQRSFRKEHRGLMSWPENIYAKQQQEINKTTLSLSERAMQLSIFGSMVNVYRRSVSFGGIYNNKLQDNLLYKKLPLNPAQGLVSAKSESSIVTKKQLETRKHACQLPLKGESSTRQNTMVESSDEEDEDEGIVVRIDSPSKIVFRNDL
notes: Arabidopsis thaliana SOS1 Na+/H+ antiporter, ecotype Columbia (Col-0) cDNA, 1146 residues; model holds residues 32-972, 1007-1017 and 1030-1048; Eluate was incubated with PreScission protease for 3 h before SEC; residues of the protease site may remain at the C-terminus; also called AtSOS1; SOS1-ClassII; source: HEK293F cells (Bac-to-Bac baculovirus, pEG-BacMam), purified (Streptactin beads, …)
stoichiometry N: 2
